Measurements from paper PMC10387464 (Signal Transduction and Targeted Therapy, 2023).

Target: Omicron BA.1 spike trimer (SARS-CoV-2 Omicron BA.1 (B.1.1.529), N440K | G446S)
Experiment: cryo-EM structure
Settings: both partners purified

B1: MB.02 Fab (Fab, V domains shown)
VH: EVQLVQSGAEVKKPGESLKISCKGSGFSFTSYWIGWVRQMPGKGLEWMGIIYPGDSDTRYSPSFQGQVTISADKSISTAYLQWSSLKASDTAMYYCARGGYEDVFDIWGQGTMVTVSS
VL: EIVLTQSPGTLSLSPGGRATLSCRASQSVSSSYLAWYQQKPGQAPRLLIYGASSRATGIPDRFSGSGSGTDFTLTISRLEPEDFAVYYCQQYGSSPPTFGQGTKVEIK
Which “stoichiometry N” value does the source give for B1 here?
Its value is 3 Fabs per S trimer.
